Data from article PMC12102759 (Protein Science : A Publication of the Protein Society, 2025).
No end group written: not given here. *: point of attachment. FITC = O=C1OC2(c3ccc(O)cc3Oc3cc(O)ccc32)c2ccc(NC(=S)*)cc21

Key:
Details in all cases: both partners purified
[1] = biological target: talin-1 phosphotyrosine binding (TLN1 PTB) domain (human, UniProt Q9Y490 309-401); test: fluorescence polarisation; saturation (direct binding): human bait protein in serial dilution added to 10 nM-master-mix FITC-labeled probe peptide; 50 mM KPO4 pH 7.5, DTT; triplicates; fit to a quadratic equation
[2] = biological target: T1, talin‐1 PTB domain (309–401), tag cleaved, for FP (human, UniProt Q9Y490 309-401); test: fluorescence polarisation; human domains; saturation with FITC-labelled probe peptide or displacement by unlabelled peptide; 50 mM KPO4 pH 7.5, DTT; triplicates; the text does not tell which of the two gave each KD
T1 construct: also called TLN1 PTB; source: E. coli BL21 (DE3), purified (Ni Sepharose, HRV 3C cleavage)

[3] = biological target: G3BP1 NTF2-like domain (1–139), tag cleaved, for FP (human, UniProt Q13283 1-139); test: fluorescence polarisation
[4] = biological target: T2, talin-1 phosphotyrosine binding (TLN1 PTB) domain (human, UniProt Q9Y490 309-401); test: fluorescence polarisation; displacement: unlabelled peptide in serial dilution added to FITC-labelled probe peptide with the protein at 4x the KD value; 50 mM KPO4 pH 7.5; triplicates; sigmoidal dose-response fit
T2 construct: source: E. coli BL21 (DE3), purified (Ni Sepharose, tag cleaved with HRV 3C protease)

[5] = biological target: SARS-CoV-2 non-structural protein 9 (NSP9) (SARS-CoV-2, UniProt P0DTD1 4141-4253); test: fluorescence polarisation
[6] = biological target: SARS-CoV-2 NSP3 SUD-M domain (SARS-CoV-2, UniProt P0DTD1 1356-1493); test: fluorescence polarisation
[7] = biological target: SARS-CoV-2 NSP3 UBl1 domain (SARS-CoV-2, UniProt P0DTD1 819-925); test: fluorescence polarisation
[8] = biological target: SARS-CoV-2 NSP3 ADRP domain (SARS-CoV-2, UniProt P0DTD1 1023-1192); test: fluorescence polarisation

T1 sequence (Q9Y490 309-401): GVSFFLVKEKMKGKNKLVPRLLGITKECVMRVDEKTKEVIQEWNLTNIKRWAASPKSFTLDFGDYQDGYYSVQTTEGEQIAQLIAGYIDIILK
Sequence of G3BP1 NTF2-like domain (1–139), tag cleaved, for FP (Q13283 1-139): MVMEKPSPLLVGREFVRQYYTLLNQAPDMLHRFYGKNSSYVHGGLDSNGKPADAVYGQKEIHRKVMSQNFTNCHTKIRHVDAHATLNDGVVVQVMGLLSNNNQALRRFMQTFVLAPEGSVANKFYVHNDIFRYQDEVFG

{FITC}-FPTDERSWVYSPLHYS (source: synthetic peptide (GeneCust)) [FITC-labeled PIP5K1C probe peptide FITC-FPTDERSWVYSPLHYS] was tested. Which Kd [1] did it give?
Its Kd is 0.065 µM.

LADLIFTDSKLYIPLE (source: synthetic peptide (GeneCust)) [wild‐type TPTE2_(92‐107) peptide] was tested. Which Kd [2] did it give?
Its Kd is 4.5 µM.

LADLIFTDSKLYAPLE (source: synthetic peptide (GeneCust)) [TPTE2 I104A peptide] was tested. Which Kd [2] did it give?
The Kd was 18 µM.

Does LADLIFTDSKLYLPLE (source: synthetic peptide (GeneCust)) [TPTE2 I104L peptide] bind [2]?
Result: binds

Which Kd [2] does the source give for LADLIFTDSKLWIPLE (source: synthetic peptide (GeneCust)) [TPTE2 Y103W peptide] here?
Its Kd is 22 µM.

How did the Kd [2] turn out when LADLIWTDSKLYIPLE (source: synthetic peptide (GeneCust)) [TPTE2_(92‐107) F97W peptide] was run?
The Kd was 0.1 µM.

With LADLIYTDSKLYIPLE (source: synthetic peptide (GeneCust)) [TPTE2_(92‐107) F97Y peptide] as the binder, how does the Kd [2] read?
Its Kd is 150 µM.

With LADLIFTDNKLYIPLE (source: synthetic peptide (GeneCust)) [TPTE2_(92‐107) S100N peptide] as the binder, how does the Kd [2] read?
The Kd was 1.7 µM.

For APRITFGGPSDSTGS [wildtype SARS‐CoV‐2 N_(12–26) peptide], which Kd [3] is on record?
Its Kd is 2.3 µM.

With Ac-LADLIFTDSKLYIPLE-NH2 [TPTE2 wt peptide 92-107] as the binder, how does the IC50 [4] read?
Its IC50 is 15 µM.

With Ac-LADLIWTDSKLYIPLE-NH2 [TPTE2_F97W peptide 92-107] as the binder, how does the IC50 [4] read?
The IC50 was 0.4 µM.

For Ac-LADLIYTDSKLYIPLE-NH2 [TPTE2_F97Y peptide 92-107], which IC50 [4] is on record?
The IC50 was 440 µM.

How did the IC50 [4] turn out when Ac-LADLIFTDSKLYAPLE-NH2 [TPTE2_I104A peptide 92-107] was run?
The IC50 was 55 µM.

For Ac-LADLIFTDSKLYLPLE-NH2 [TPTE2_I104L peptide 92-107], which IC50 [4] is on record?
Its IC50 is 14 µM.

And the Kd [4]?
Its Kd is 4.5 µM.

For Ac-LADLIFTDSALYIPLE-NH2 [TPTE2_K101A peptide 92-107], which IC50 [4] is on record?
The IC50 was 45 µM.

What about the Kd [4] of the same binder?
Its Kd is 15 µM.

Which IC50 [4] does the source give for Ac-LADLIFTDNKLYIPLE-NH2 [TPTE2_S100N peptide 92-107] here?
The IC50 was 5.2 µM.

With Ac-LADLIFTDSKLWIPLE-NH2 [TPTE2_Y103W peptide 92-107] as the binder, how does the IC50 [4] read?
The IC50 was 66 µM.

QGAWLGAPEPWEPLLD [NOTCH4 wt peptide 1606-1621] was tested. Which IC50 [5] did it give?
Its IC50 is 205 µM.

For AEGIDIGEMPSYDLVL (FITC on the N-terminus, NKRF residues 8-23) [FITC-labelled NKRF peptide 8-23], which Kd [5] is on record?
Its Kd is 15.5 µM.

How did the IC50 [6] turn out when QFTEEDLHFVLYGVTPY [PRDM14 wt peptide 196-211] was run?
The IC50 was 400 µM.

How did the Kd [6] turn out when FTEEDLHFVLYGVTPS (FITC on the N-terminus) [FITC-labelled PRDM14 peptide 197-212] was run?
Its Kd is 19 µM.

How did the IC50 [7] turn out when PSDEGALLDQLYLALR [NCOA2 wt peptide 1073-1088] was run?
Its IC50 is 139 µM.

For SDEGALLDQLYLALRN (FITC on the N-terminus) [FITC-labelled NCOA2 peptide 1074-1089], which Kd [7] is on record?
The Kd was 67 µM.

With STYLHPLSELLGIPLD [MBOAT1 wt peptide 17-32] as the binder, how does the IC50 [8] read?
Its IC50 is 175 µM.

With GSTYLHPLSELLGIPL (FITC on the N-terminus) [FITC-labelled MBOAT1 peptide 16-31] as the binder, how does the Kd [8] read?
The Kd was 50.8 µM.
